Measurements as given in US20060234944A1, “Beta-secretase inhibitors and methods of use” (Oklahoma Medical Reseach Foundation, priority 2001, published 2006).
Where no end group is shown, it is not given here. [ ]: non-standard residue; d: D form. FAM = 5-(and 6-)carboxyfluorescein; Ahx = NCCCCCC(=O)O

B1: CPI-3: (ELDL*AVEF)-GG-(…) (peptide)
peptide: ELDLAVEFGG[dR][dR][dR][dR][dR][dR][dR][dR][dR]
modifications: also: hydroxyethylene isostere between Leu4 and Ala5
B2: CPI-2: FAM-Ahx-(ELDL*AVEF)-GG-(…) (peptide)
peptide: {FAM-Ahx}-ELDLAVEFGG[dR][dR][dR][dR][dR][dR][dR][dR][dR]
modifications: numbers in words are those of the source; also: hydroxyethylene isostere between Leu5 and Ala6

Biological target: memapsin 2 (spontaneously activated promemapsin 2-T1; amino acids 43-456 and 45-456 of SEQ ID NO: 8) (human) (UniProt P56817)
Sequence (P56817 41-454): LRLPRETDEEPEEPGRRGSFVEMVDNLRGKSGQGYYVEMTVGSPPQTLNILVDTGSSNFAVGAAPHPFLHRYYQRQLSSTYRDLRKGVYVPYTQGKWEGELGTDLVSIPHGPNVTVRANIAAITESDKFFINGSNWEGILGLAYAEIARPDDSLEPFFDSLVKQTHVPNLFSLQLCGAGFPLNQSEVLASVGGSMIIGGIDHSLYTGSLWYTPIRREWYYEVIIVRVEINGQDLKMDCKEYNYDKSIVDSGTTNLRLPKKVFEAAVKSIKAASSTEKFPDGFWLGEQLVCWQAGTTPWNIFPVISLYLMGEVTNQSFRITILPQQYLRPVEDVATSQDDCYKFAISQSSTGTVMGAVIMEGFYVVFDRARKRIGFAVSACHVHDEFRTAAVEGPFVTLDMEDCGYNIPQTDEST
Test: kinetic inhibition experiment (procedure of Ermolieff et al.)

Row | Binder | Ki | Ki apparent
1 | B1 | 35 nM | 
2 | B2 |  | 58 nM
